Where no end group is shown, it is not given here.
T1: Rtt106p_(65-301) (S. cerevisiae, UniProt P40161 65-301)
T1 construct: Rtt106p, yeast, residues 65-301 (tandem PH domains); also called Rtt106_(65-301); source: E. coli BL21 pRARE2, purified
T1 sequence (looked up): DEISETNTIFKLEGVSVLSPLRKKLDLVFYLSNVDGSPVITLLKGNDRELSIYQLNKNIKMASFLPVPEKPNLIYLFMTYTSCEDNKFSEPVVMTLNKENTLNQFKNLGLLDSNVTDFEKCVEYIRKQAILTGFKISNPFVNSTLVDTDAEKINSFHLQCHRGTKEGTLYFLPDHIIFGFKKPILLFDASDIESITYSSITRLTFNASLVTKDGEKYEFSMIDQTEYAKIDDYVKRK

T2: Rtt106p_(65-301) (S. cerevisiae, UniProt P40161 65-301)
T2 chain: T1 sequence (looked up)

T3: recombinant fragment Rtt106p-M (Rtt106p_(65-320)), purified (S. cerevisiae, UniProt P40161 65-320)
T3 chain: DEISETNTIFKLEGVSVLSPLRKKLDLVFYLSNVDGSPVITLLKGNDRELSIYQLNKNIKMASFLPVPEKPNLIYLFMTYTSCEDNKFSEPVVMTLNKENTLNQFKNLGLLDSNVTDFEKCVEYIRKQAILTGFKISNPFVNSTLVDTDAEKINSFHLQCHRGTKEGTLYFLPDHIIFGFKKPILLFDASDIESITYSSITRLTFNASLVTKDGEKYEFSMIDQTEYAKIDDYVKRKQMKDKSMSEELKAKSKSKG

T4: Rtt106p_(65-301) bound to Bcd1p_(120-303) (S. cerevisiae, UniProt P40161 65-301; P38772 120-303)
T4 construct: Rtt106p, yeast, residues 65-301; as the chain of m19; as the chain of m18; Formed before titration with the H3K56ac peptide; source: E. coli BL21 pRARE2, purified proteins, mixed; not shown: His6, N-terminal, cleaved; copies: 1 + 1
T4 sequence (looked up) 1: T1 sequence (looked up)
T4 sequence (looked up) 2: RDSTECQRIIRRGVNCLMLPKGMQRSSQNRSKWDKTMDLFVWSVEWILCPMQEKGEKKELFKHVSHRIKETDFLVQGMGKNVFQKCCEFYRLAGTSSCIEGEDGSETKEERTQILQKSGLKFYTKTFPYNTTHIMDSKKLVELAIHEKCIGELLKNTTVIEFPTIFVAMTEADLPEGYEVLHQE

T5: Rtt106p_(65-301) bound to Bcd1p_(120-303) (S. cerevisiae, UniProt P40161 65-301; P38772 120-303)
T5 chain 1: T1 sequence (looked up)
T5 chain 2: T4 sequence (looked up) 2

B1: Bcd1p_(120-303) (domain or fragment, S. cerevisiae, UniProt P38772 120-303, looked up)
chain: T4 sequence (looked up) 2
notes: Tag removal is told for the NMR preparation; the preparation for ITC is not described separately; source: E. coli BL21 pRARE2, purified (TALON, PreScission cleavage, gel filtration); not shown: His6, N-terminal, cleaved
B2: H3K56ac (IRRFQKacSTELL) peptide (peptide)
peptide: IRRFQK(Ac)STELL
notes: histone H3 stretch around lysine 56, acetylated at K56; also called acetylated peptide; source: synthetic peptide, bought: Proteogenix
B3: Bcd1p120-366 (protein)
chain: RDSTECQRIIRRGVNCLMLPKGMQRSSQNRSKWDKTMDLFVWSVEWILCPMQEKGEKKELFKHVSHRIKETDFLVQGMGKNVFQKCCEFYRLAGTSSCIEGEDGSETKEERTQILQKSGLKFYTKTFPYNTTHIMDSKKLVELAIHEKCIGELLKNTTVIEFPTIFVAMTEADLPEGYEVLHQEPRPLEHTSTLNKFIDNAREEEDAEEDSQPTEEPVQKETQDASDSDSDSDDDYNPGLSMDFLTA
B4: recombinant fragment Rtt106p-M (Rtt106p_(65-320)), purified (domain or fragment, S. cerevisiae, UniProt P40161 65-320, looked up)
chain: T3 chain
notes: Rtt106p, yeast, residues 65-320 (tandem PH1 and PH2 domains); Native MS mass 29,695 Da; also called 65-320 (M) domain of Rtt106p
B5: recombinant Bcd1pFL, purified (natural protein, S. cerevisiae, UniProt P38772 1-366, looked up)
chain: MAVLCGVCGIKEFKYKCPRCLVQTCSLECSKKHKTRDNCSGQTHDPKEYISSEALKQADDDKHERNAYVQRDYNYLTQLKRMVHVQKMDARMKNKRVLGPVGGHNSNFKKRRYDIDEDDRDSTECQRIIRRGVNCLMLPKGMQRSSQNRSKWDKTMDLFVWSVEWILCPMQEKGEKKELFKHVSHRIKETDFLVQGMGKNVFQKCCEFYRLAGTSSCIEGEDGSETKEERTQILQKSGLKFYTKTFPYNTTHIMDSKKLVELAIHEKCIGELLKNTTVIEFPTIFVAMTEADLPEGYEVLHQEPRPLEHTSTLNKFIDNAREEEDAEEDSQPTEEPVQKETQDASDSDSDSDDDYNPGLSMDFLTA
notes: Bcd1p, S. cerevisiae, full length; Detected by native MS with two zinc ions (42,752 Da); also called Bcd1FL; full-length Bcd1p

Tests used:
Rtt106p_(65-301) [1] = biological target: T1, Rtt106p_(65-301); experiment: ITC; 293 K, 10 mM NaPi pH 7.5, 150 mM NaCl, 0.5 mM TCEP; 40 μM titrated, 400 μM titrant; conditions: both partners purified
Rtt106p_(65-301) [2] = biological target: T2, Rtt106p_(65-301); experiment: ITC
[3] = biological target: T3, recombinant fragment Rtt106p-M …; experiment: ITC
Rtt106p_(65-301) [4] = biological target: T1, Rtt106p_(65-301); experiment: ITC; H3K56ac peptide (2 mM) as the titrant into 200 μM Rtt106p_(65-301) with or without Bcd1p_(120-303); conditions: both partners purified
[5] = biological target: T4, Rtt106p_(65-301) bound to …; experiment: as above; conditions: both partners purified
[6] = biological target: T5, Rtt106p_(65-301) bound to …; experiment: ITC
[7] = biological target: B5; experiment: ITC; 293 K, 10 mM NaPi pH 7.5, 150 mM NaCl, 0.5 mM TCEP; 40 μM titrated, 400 μM titrant; conditions: both partners purified
[8] = biological target: B4; experiment: native MS; individual partners and co-purified complex in 150 mM ammonium acetate pH 7.5, nanoESI, nondenaturing conditions; conditions: both partners purified

B1
Kd (Rtt106p_(65-301) [1]): 940 ± 60 nM | Kd (Rtt106p_(65-301) [2]): 1630 nM | Kd [3]: 1160 nM

B2
binding result (Rtt106p_(65-301) [4]): binds | binding result [5]: binds | Kd (Rtt106p_(65-301) [2]): 714000 nM | Kd [6]: 649000 nM

B3
Kd [3]: 1740 nM

B4
Kd [7]: 1170 ± 170 nM

B5
stoichiometry N [8]: 1

— publication PMC7994586, “The box C/D snoRNP assembly factor Bcd1 interacts with the histone chaperone Rtt106 and controls its transcription dependent activity” (Nature Communications, 2021)
